Test results taken from the supplement of paper PMC10724198.
± gives the standard deviation of the averaged measurements.

Assays:
[1] = system: Saccharomyces cerevisiae; assay: protein stability index of tFT-peptide fusion (C-terminal peptide) (PSI (0-1 scale)); higher = more stable (slower turnover); settings: genetic background: wild type; temperature: 30 C
[2] = system: Saccharomyces cerevisiae; assay: as above
Method: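 MPS profiling in S. cerevisiae of the tFT-X12 degron library: putative degron peptides plus stable controls, 12 aa, fused to the C-terminus of a sfGFP-mCherry timer. Cells are FACS-sorted into 8 mCherry/sfGFP bins and deep-sequenced. PSI runs from 0 (unstable) to 1 (stable). Backgrounds are wild type, das1Δ and doa10Δ at 30 °C, and wild type, das1Δ, cdc34-1 and cdc53-1 at 37 °C; 2-3 technical replicates each.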

[3] = genetic background: cdc34-1, temperature: 37 C
[4] = genetic background: cdc53-1, temperature: 37 C
[5] = genetic background: das1 deletion, temperature: 30 C
[6] = genetic background: das1 deletion, temperature: 37 C
[7] = genetic background: doa10 deletion, temperature: 30 C
[8] = genetic background: wild type, temperature: 30 C
[9] = genetic background: wild type, temperature: 37 C
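Also: PSI is a weighted mean of sequencing reads over stability bins, variants kept only with over 10 reads, mCherry proximal and sfGFP distal, peptide attached via GGGS linker.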

Row | Sequence | protein stability index [1] | protein stability index [2, 3] | protein stability index [2, 4] | protein stability index [2, 5] | protein stability index [2, 6] | protein stability index [2, 7] | protein stability index [2, 8] | protein stability index [2, 9]
1 | LLGHLFTMLVIY | 0.308 ± 0.014 | 0.211 ± 0.18 | 0.157 ± 0.023 | 0.286 ± 0.053 | 0.366 ± 0.0077 | 0.397 ± 0.0055 | 0.234 ± 0.019 | 0.311 ± 0.012
2 | LLLLRCLWISHA | 0.244 ± 0.015 | 0.324 ± 0.053 | 0.441 ± 0.029 | 0.319 ± 0.039 | 0.5121 ± 0.0012 | 0.125 ± 0.019 | 0.145 ± 0.026 | 0.258 ± 0.0082
3 | LLPLLFFFLCLP | 0.4989 ± 0.0038 | 0.592 ± 0.058 | 0.584 ± 0.0088 | 0.495 ± 0.035 | 0.5602 ± 0.0049 | 0.462 ± 0.006 | 0.452 ± 0.02 | 0.529 ± 0.014
4 | LLPSPLLLYSLS | 0.451 ± 0.028 | 0.556 ± 0.03 | 0.578 ± 0.019 | 0.434 ± 0.022 | 0.6022 ± 0.0024 | 0.3814 ± 0.0018 | 0.412 ± 0.017 | 0.562 ± 0.015
5 | LLRLCGFPLGVG | 0.4497 ± 0.00073 | 0.466 ± 0.027 | 0.54 ± 0.0086 | 0.488 ± 0.014 | 0.55 ± 0.0049 | 0.41 ± 0.014 | 0.4004 ± 0.002 | 0.51 ± 0.017
6 | LLRLPLLALLFV | 0.111 ± 0.0047 | 0.236 ± 0.028 | 0.227 ± 0.0089 | 0.233 ± 0.026 | 0.356 ± 0.0077 | 0.337 ± 0.02 | 0.222 ± 0.033 | 0.324 ± 0.016
7 | LLSAFPYLPVFA | 0.337 ± 0.0066 | 0.277 ± 0.025 | 0.326 ± 0.048 | 0.251 ± 0.02 | 0.3941 ± 0.0035 | 0.2141 ± 0.00033 | 0.244 ± 0.022 | 0.373 ± 0.044
8 | LLVRSFIFPLVY | 0.367 ± 0.034 | 0.3906 ± 0.0039 | 0.428 ± 0.018 | 0.294 ± 0.053 | 0.482 ± 0.018 | 0.282 ± 0.016 | 0.289 ± 0.013 | 0.441 ± 0.012
9 | LLVVGPVRLVVH | 0.262 ± 0.023 | 0.214 ± 0.019 | 0.259 ± 0.0027 | 0.201 ± 0.034 | 0.346 ± 0.017 | 0.168 ± 0.0078 | 0.18 ± 0.026 | 0.321 ± 0.012
10 | LLYPSKFCITAI | 0.374 ± 0.016 | 0.506 ± 0.024 | 0.559 ± 0.03 | 0.413 ± 0.032 | 0.575 ± 0.016 | 0.248 ± 0.007 | 0.272 ± 0.027 | 0.431 ± 0.0044
11 | LLYYMPELLILT | 0.28 ± 0.018 | 0.152 ± 0.0021 | 0.145 ± 0.028 | 0.208 ± 0.0081 | 0.273 ± 0.0049 | 0.242 ± 0.013 | 0.199 ± 0.025 | 0.264 ± 0.007
12 | LMLIPRLLVGAH | 0.291 ± 0.014 | 0.181 ± 0.034 | 0.172 ± 0.0025 | 0.184 ± 0.029 | 0.2958 ± 0.0022 | 0.152 ± 0.008 | 0.181 ± 0.018 | 0.2523 ± 0.0011
13 | LPFFSFSPWWFY | 0.262 ± 0.033 | 0.773 ± 0.042 | 0.808 ± 0.026 | 0.736 ± 0.04 | 0.817 ± 0.029 | 0.209 ± 0.036 | 0.24 ± 0.036 | 0.497 ± 0.018
14 | LPIFWVWFSVFR | 0.349 ± 0.0062 | 0.232 ± 0.012 | 0.243 ± 0.022 | 0.269 ± 0.035 | 0.445 ± 0.027 | 0.334 ± 0.027 | 0.257 ± 0.034 | 0.3973 ± 0.0026
15 | LPLHPHRSRYLV | 0.21 ± 0.021 | 0.593 ± 0.033 | 0.691 ± 0.018 | 0.674 ± 0.019 | 0.702 ± 0.031 | 0.101 ± 0.015 | 0.0982 ± 0.0075 | 0.203 ± 0.02
16 | LPPPTPRSVLLN | 0.51 ± 0.076 | 0.644 ± 0.039 | 0.737 ± 0.034 | 0.672 ± 0.019 | 0.732 ± 0.015 | 0.296 ± 0.019 | 0.315 ± 0.04 | 0.5546 ± 0.0016
17 | LPSPPSSPPLRP | 0.508 ± 0.019 | 0.6542 ± 0.0027 | 0.57161 ± 0.00026 | 0.597 ± 0.0064 | 0.732 ± 0.045 | 0.5877 ± 0.0035 | 0.599 ± 0.017 | 0.701 ± 0.039
18 | LPSRWVPLPTPA | 0.508 ± 0.016 | 0.5362 ± 0.0003 | 0.569 ± 0.024 | 0.407 ± 0.037 | 0.59 ± 0.004 | 0.38 ± 0.016 | 0.413 ± 0.022 | 0.56219 ± 0.00016
19 | LPTLDCPLHRLF | 0.559 ± 0.084 | 0.694 ± 0.026 | 0.8 ± 0.0093 | 0.641 ± 0.012 | 0.7615 ± 0.0076 | 0.674 ± 0.016 | 0.654 ± 0.0035 | 0.733 ± 0.016
20 | LQCVYFVFFICF | 0.399 ± 0.051 | 0.2682 ± 0.0023 | 0.4 ± 0.016 | 0.266 ± 0.018 | 0.412 ± 0.0067 | 0.235 ± 0.0054 | 0.251 ± 0.015 | 0.37 ± 0.032
